The values that follow come from patent US20250268938A1, “SMALL MOLECULE-REGULATED CELL SIGNALING EXPRESSION SYSTEM” (Outpace Bio, Inc., priority 2021, published 2025).

The subject of the test is Jurkat cells. In words: Kill switch percent killing in Jurkat cells (flow cytometry). It counts as cell-based. The conditions noted are these: for percent killing in the absence of a scaffolded NS3a: danoprevir or grazoprevir treatment, 500 nM; for percent killing, miniaturized DNCR2 designs fused to caspase-9 with homo-oligomerized NS3a scaffolds: co-expressed with CAR-NS3a, CAR-NS3a-NS3a or dimer-NS3a. As for the experimental part:
Kill switch-positive cells (le5) were incubated for 24-48 hours with inducer drug before staining and analysis for death. Conditions were normalized to contain about 50% transduction positive (+) cells by adding untransduced Jurkat or primary T cells in order to get accurate statistics on death.
Flow cytometry was performed on a Ze5 cytometer (Biorad). To determine expression of markers, between 1×10^5-2×10^5 total cells were transferred to a U-bottom 96 well culture dish (Corning). Cells were washed twice with Cell Staining Buffer (BioLegend), then stained with Zombie Violet (1:1000, BioLegend) and ROR1-FC for ROR1-specific CAR constructs (20 min at room temperature). Cells were washed twice in Cell Staining Buffer, then stained with Annexin V-PE (BD) in 1× Annexin V Binding Buffer (BD) for 15 min at room temperature. After staining, cells were washed once with Annexin V Binding Buffer, resuspended in AnneinV Binding Buffer and immediately analyzed.
Flow cytometry data was analyzed using FlowJo 10 (Tree Star). Percent killing was calculated by gating on live cells, then calculating 100*((percent GFP positive DMSO condition)−(percent GFP positive drug condition))/(percent GFP positive DMSO condition).
We first tested for drug-induced death of Jurkat cells by fusing NS3a and DNCR2 separately to the catalytic domain of caspase-9 (NCDC). The small molecule inducible homodimer FKBP-F36V (iCasp9), which is dimerized by AP1903 (rimiducid) and the inducible heterodimer FKBP/rapamycin/FRB dimer (rapaCasp9) were used as controls. Briefly, Jurkat cells expressing NCDC, iCasp9, or rapaCasp9 were exposed to danoprevir, rimiducid or rapamycin, respectively, for 24 hours and analyzed by flow cytometry with gating set to measure killing in the top about 10% of cells expressing the highest amount of the GFP kill switch transduction marker.
To evaluate the kill switch designs of FIG. 8A, constructs were expressed in Jurkat cells, treated with 500 nM danoprevir (DNCR2-casp-9) or 500 nM grazoprevir (GNCR1-casp-9) and cell death measured by percent killing as described herein above.
The miniaturized versions of DNCR2, D1 and D9, were fused to caspase-9 and co-expressed in Jurkat cells with homo-oligomerized NS3a scaffolds. We also evaluated a CAR construct that included an additional copy of NS3a (CAR-2×NS3a). The original DNCR2-casp-9 was used as a control. Jurkat cells expressing different DNCR2 variants fused to caspase-9 along with CAR-NS3a, CAR-NS3a-NS3a, or dimer-NS3a were treated with 500 nM danoprevir and cell death was measured by percent killing as described herein above.
We explored the ability of other human killing domains to induce cell death in Jurkat and primary human T cells. We fused FKBP-F36V to a panel of killing domains that included caspase-9 D330A, caspase-9, caspase-1, caspase-4, and the necroptosis-inducing protein RIPK3. Briefly, Jurkat and primary human CD4+/CD8+ T cells expressing FKBP(F36V)-fused killing domains were treated with 10 nM rimiducid and cell death was measured by percent killing as described herein above.
(A flow cytometer gives signals particle by particle.)

B1: DNCR2-casp-9: caspase-9 fused to DNCR2 (protein)
chain: MSSDEEEARELIERAKEAAERAQEAAERTGDPRVRELARELKRLAQEAAEEVKRDPSSSDVNEALKLIVEAIEAAVDALEAAERTGDPEVRELARELVRLAVEAAEEVQRNPSSSDVNEALHSIVYAIEAAIFALEAAERTGDPEVRELARELVRLAVEAAEEVQRNPSSRNVEHALMRIVLAIYLAEENLREAEESGDPEKREKARERVREAVERAEEVQRDPSGWLNHSGSASGSGGFGDVGALESLRGNADLAYILSMEPCGHCLIINNVNFCRESGLRTRTGSNIDCEKLRRRFSSLHFMVEVKGDLTAKKMVLALLELAQQDHGALDCCVVVILSHGCQASHLQFPGAVYGTDGCPVSVEKIVNIFNGTSCPSLGGKPKLFFIQACGGEQKDHGFEVASTSPEDESPGSNPEPDATPFQEGLRTFDQLAAISSLPTPSDIFVSYSTFPGFVSWRDPKSGSWYVETLDDIFEQWAHSEDLQSLLLRVANAVSVKGIYKQMPGCFNFLRKKLFFKTSGSGATNFSLLKQAGDVEENPG
In the case of B1, the “percent killing in the absence of a scaffolded NS3a” value is “did not induce Jurkat death”.

B2: CAR-2×NS3a: CAR construct that included an additional copy of NS3a (protein)
chain: CPPCPMFWVLVVVGGVLACYSLLVTVAFIIFWVKRGRKKLLYIFKQPFMRPVQTTQEEDGCSCRFPEEEEGGCELASGSASGSASMKKKGSVVIVGRINLSGDTAYSQQTRGLEGCQETSQTGRDKNQVEGEVQVVSTATQSFLATSINGVLWTVYHGAGTRTIASPKGPVTQMYTNVDKDLVGWQAPQGSRSLTPCTCGSSDLYLVTRHADVIPVRRRGDSRGSLLSPRPISYLKGSAGGPLLCPAGHAVGIFRAAVSTRGVAKAVDFIPVESLETTMRSPGSSGSSGSSGGKKKGSVVIVGRINLSGDTAYSQQTRGLEGCQETSQTGRDKNQVEGEVQVVSTATQSFLATSINGVLWTVYHGAGTRTIASPKGPVTQMYTNVDKDLVGWQAPQGSRSLTPCTCGSSDLYLVTRHADVIPVRRRGDSRGSLLSPRPISYLKGSAGGPLLCPAGHAVGIFRAAVSTRGVAKAVDFIPVESLETTMRSP
Turning to B2, under “500 nM danoprevir”, the “percent killing, miniaturized DNCR2 designs fused to caspase-9 with homo-oligomerized NS3a scaffolds” value is recorded as “increased killing further”.

B3: D9: minimized version of DNCR2 fused to caspase-9 (protein)
chain: MELEEVLKDLEEALERLRNEELRRLIEEIAELLRRRDDHSIIYMIEALIFVIEAVERTGDERIEKLLEELIKRIRNGDDDSAIMRIVLAVYLIEENLRESGSASGSGGFGDVGALESLRGNADLAYILSMEPCGHCLIINNVNFCRESGLRTRTGSNIDCEKLRRRFSSLHFMVEVKGDLTAKKMVLALLELAQQDHGALDCCVVVILSHGCQASHLQFPGAVYGTDGCPVSVEKIVNIFNGTSCPSLGGKPKLFFIQACGGEQKDHGFEVASTSPEDESPGSNPEPDATPFQEGLRTFDQLAAISSLPTPSDIFVSYSTFPGFVSWRDPKSGSWYVETLDDIFEQWAHSEDLQSLLLRVANAVSVKGIYKQMPGCFNFLRKKLFFKTS
On to B3, for which, under “500 nM danoprevir”, the “percent killing, miniaturized DNCR2 designs fused to caspase-9 with homo-oligomerized NS3a scaffolds” value was “comparable Jurkat death as the original DNCR2-casp-9”.

B4: D1: minimized version of DNCR2 fused to caspase-9 (protein)
chain: MDDNEAEKLIREAEEAAKDAEEAAERTGDPEVRELARELVRLAKEAAEEVQRNPSSSDVNEALHSIVYAIEAAIFALEAAERTGDPEVRELARELVRLAVEAAEEVQRNPSSRNVEHALMRIVLAIYLAEENLRESGSASGSGGFGDVGALESLRGNADLAYILSMEPCGHCLIINNVNFCRESGLRTRTGSNIDCEKLRRRFSSLHFMVEVKGDLTAKKMVLALLELAQQDHGALDCCVVVILSHGCQASHLQFPGAVYGTDGCPVSVEKIVNIFNGTSCPSLGGKPKLFFIQACGGEQKDHGFEVASTSPEDESPGSNPEPDATPFQEGLRTFDQLAAISSLPTPSDIFVSYSTFPGFVSWRDPKSGSWYVETLDDIFEQWAHSEDLQSLLLRVANAVSVKGIYKQMPGCFNFLRKKLFFKTS
On to B4, for which the “percent killing, miniaturized DNCR2 designs fused to caspase-9 with homo-oligomerized NS3a scaffolds” value (500 nM danoprevir) is “comparable Jurkat death as the original DNCR2-casp-9”.

B5: dimer-NS3a: NS3a fused to C-terminus of designed homo-oligomeric helical bundle, dimer (SEQ ID NO: 42) (protein)
chain: MTRTEIIRELERSLREQEELAKRLKELLRELERLQREGSSDEDVRELLREIKELVEEIEKLAREQKYLVEELKRQDGSASGSASMKKKGSVVIVGRINLSGDTAYSQQTRGLEGCQETSQTGRDKNQVEGEVQVVSTATQSFLATSINGVLWTVYHGAGTRTIASPKGPVTQMYTNVDKDLVGWQAPQGSRSLTPCTCGSSDLYLVTRHADVIPVRRRGDSRGSLLSPRPISYLKGSAGGPLLCPAGHAVGIFRAAVSTRGVAKAVDFIPVESLETTMRSP
On to B5, for which the “percent killing, NS3a scaffold with DNCR2-casp-9” value (500 nM danoprevir) is listed as “comparable killing to iCasp9”.

B6: hexamer-NS3a: NS3a fused to C-terminus of designed homo-oligomeric helical bundle, hexamer (SEQ ID NO: 43) (protein)
chain: MTEDEIRKLRKLLEEAEKKLKKLEDKTRRSEEISKTDDDPKAQSLQLIAESLMLIAESLLIIAISLLLSSRNGSASGSASMKKKGSVVIVGRINLSGDTAYSQQTRGLEGCQETSQTGRDKNQVEGEVQVVSTATQSFLATSINGVLWTVYHGAGTRTIASPKGPVTQMYTNVDKDLVGWQAPQGSRSLTPCTCGSSDLYLVTRHADVIPVRRRGDSRGSLLSPRPISYLKGSAGGPLLCPAGHAVGIFRAAVSTRGVAKAVDFIPVESLETTMRSP
Regarding B6, the “percent killing, NS3a scaffold with GNCR1-casp-9” value (500 nM grazoprevir) is listed as “modest death”.

B7: GNCR1-casp-9: caspase-9 fused to GNCR1 (protein)
chain: MDIEKLCKKAEEEAKEAQEKADELRQRHPDSQAAEDAEDLANLAVAAVLTACLLAQEHPNADIAKLCIKAASEAAEAASKAAELAQRHPDSQAARDAIKLASQAARAVILAIMLAAENPNADIAKLCIKAASEAAEAASKAAELAQRHPDSQAARDAIKLASQAAEAVERAIWLAAENPNADIAKKCIKAASEAAEEASKAAEEAQRHPDSQKARDEIKEASQKAEEVKERCKSGSASGSGGFGDVGALESLRGNADLAYILSMEPCGHCLIINNVNFCRESGLRTRTGSNIDCEKLRRRFSSLHFMVEVKGDLTAKKMVLALLELAQQDHGALDCCVVVILSHGCQASHLQFPGAVYGTDGCPVSVEKIVNIFNGTSCPSLGGKPKLFFIQACGGEQKDHGFEVASTSPEDESPGSNPEPDATPFQEGLRTFDQLDAISSLPTPSDIFVSYSTFPGFVSWRDPKSGSWYVETLDDIFEQWAHSEDLQSLLLRVANAVSVKGIYKQMPGCFNFLRKKLFFKTS
For B7, the “percent killing in the absence of a scaffolded NS3a” value is “did not induce Jurkat death”.
